Test results as given in publication PMC3948114.

Legend:
[1] = target: HLA-B*27:05-KF9 N8H tetramer; assay: tetramer staining of transfected HEK293 cells; details: chain shown with the change; 0.2 μg tetramer; parent: est. 100; read off a plot
HLA-B*27:05-KF9 tetramer = assay: tetramer staining of transfected HEK293 cells; details: chain shown with the change; 0.2 μg tetramer; parent: est. 100; read off a plot

Row | Binder | percent of parent [1] | percent of parent (HLA-B*27:05-KF9 tetramer)
1 | FLAG-tagged 3DL1*001, P43629 M165A (protein) HMGGQDKPFLSAWPSAVVPRGGHVTLRCHYRHRFNNFMLYKEDRIHIPIFHGRIFQESFNMSPVTTAHAGNYTCRGSHPHSPTGWSAPSNPVVIMVTGNHRKPSLLAHPGPLVKSGERVILQCWSDIMFEHFFLHKEGISKDPSRLVGQIHDGVSKANFSIGPMALALAGTYRCYGSVTHTPYQLSAPSDPLDIVVTGPYEKPSLSAQPGPKVQAGESVTLSCSSRSSYDMYHLSREGGAHERRLPAVRKVNRTFQADFPLGPATHGGTYRCFGSFRHSPYEWSDPSDPLLVSVTGNPSSSWPSPTEPSSKSGNPRHLHILIGTSVVIILFILLLFFLLHLWCSNKKNAAVMDQEPAGNRTANSEDSDEQDPEEVTYAQLDHCVFTQRKITRPSQRPKTPPTDTILYTELPNAKPRSKVVSCP | 61 % of ·001 | 60 % of ·001
2 | FLAG-tagged 3DL1*001, P43629 A167G (protein) HMGGQDKPFLSAWPSAVVPRGGHVTLRCHYRHRFNNFMLYKEDRIHIPIFHGRIFQESFNMSPVTTAHAGNYTCRGSHPHSPTGWSAPSNPVVIMVTGNHRKPSLLAHPGPLVKSGERVILQCWSDIMFEHFFLHKEGISKDPSRLVGQIHDGVSKANFSIGPMMLGLAGTYRCYGSVTHTPYQLSAPSDPLDIVVTGPYEKPSLSAQPGPKVQAGESVTLSCSSRSSYDMYHLSREGGAHERRLPAVRKVNRTFQADFPLGPATHGGTYRCFGSFRHSPYEWSDPSDPLLVSVTGNPSSSWPSPTEPSSKSGNPRHLHILIGTSVVIILFILLLFFLLHLWCSNKKNAAVMDQEPAGNRTANSEDSDEQDPEEVTYAQLDHCVFTQRKITRPSQRPKTPPTDTILYTELPNAKPRSKVVSCP | 130 % of ·001 | 65 % of ·001
3 | FLAG-tagged 3DL1*001, P43629 L166V (protein) HMGGQDKPFLSAWPSAVVPRGGHVTLRCHYRHRFNNFMLYKEDRIHIPIFHGRIFQESFNMSPVTTAHAGNYTCRGSHPHSPTGWSAPSNPVVIMVTGNHRKPSLLAHPGPLVKSGERVILQCWSDIMFEHFFLHKEGISKDPSRLVGQIHDGVSKANFSIGPMMVALAGTYRCYGSVTHTPYQLSAPSDPLDIVVTGPYEKPSLSAQPGPKVQAGESVTLSCSSRSSYDMYHLSREGGAHERRLPAVRKVNRTFQADFPLGPATHGGTYRCFGSFRHSPYEWSDPSDPLLVSVTGNPSSSWPSPTEPSSKSGNPRHLHILIGTSVVIILFILLLFFLLHLWCSNKKNAAVMDQEPAGNRTANSEDSDEQDPEEVTYAQLDHCVFTQRKITRPSQRPKTPPTDTILYTELPNAKPRSKVVSCP | 58 % of ·001 | 36 % of ·001
4 | FLAG-tagged 3DL1*001, P43629 D230A (protein) HMGGQDKPFLSAWPSAVVPRGGHVTLRCHYRHRFNNFMLYKEDRIHIPIFHGRIFQESFNMSPVTTAHAGNYTCRGSHPHSPTGWSAPSNPVVIMVTGNHRKPSLLAHPGPLVKSGERVILQCWSDIMFEHFFLHKEGISKDPSRLVGQIHDGVSKANFSIGPMMLALAGTYRCYGSVTHTPYQLSAPSDPLDIVVTGPYEKPSLSAQPGPKVQAGESVTLSCSSRSSYAMYHLSREGGAHERRLPAVRKVNRTFQADFPLGPATHGGTYRCFGSFRHSPYEWSDPSDPLLVSVTGNPSSSWPSPTEPSSKSGNPRHLHILIGTSVVIILFILLLFFLLHLWCSNKKNAAVMDQEPAGNRTANSEDSDEQDPEEVTYAQLDHCVFTQRKITRPSQRPKTPPTDTILYTELPNAKPRSKVVSCP | 66 % of ·001 | 70 % of ·001
5 | FLAG-tagged 3DL1*001, P43629 P199A (protein) HMGGQDKPFLSAWPSAVVPRGGHVTLRCHYRHRFNNFMLYKEDRIHIPIFHGRIFQESFNMSPVTTAHAGNYTCRGSHPHSPTGWSAPSNPVVIMVTGNHRKPSLLAHPGPLVKSGERVILQCWSDIMFEHFFLHKEGISKDPSRLVGQIHDGVSKANFSIGPMMLALAGTYRCYGSVTHTPYQLSAPSDPLDIVVTGAYEKPSLSAQPGPKVQAGESVTLSCSSRSSYDMYHLSREGGAHERRLPAVRKVNRTFQADFPLGPATHGGTYRCFGSFRHSPYEWSDPSDPLLVSVTGNPSSSWPSPTEPSSKSGNPRHLHILIGTSVVIILFILLLFFLLHLWCSNKKNAAVMDQEPAGNRTANSEDSDEQDPEEVTYAQLDHCVFTQRKITRPSQRPKTPPTDTILYTELPNAKPRSKVVSCP | 21 % of ·001 | 21 % of ·001
6 | FLAG-tagged 3DL1*001, P43629 E282Q (protein) HMGGQDKPFLSAWPSAVVPRGGHVTLRCHYRHRFNNFMLYKEDRIHIPIFHGRIFQESFNMSPVTTAHAGNYTCRGSHPHSPTGWSAPSNPVVIMVTGNHRKPSLLAHPGPLVKSGERVILQCWSDIMFEHFFLHKEGISKDPSRLVGQIHDGVSKANFSIGPMMLALAGTYRCYGSVTHTPYQLSAPSDPLDIVVTGPYEKPSLSAQPGPKVQAGESVTLSCSSRSSYDMYHLSREGGAHERRLPAVRKVNRTFQADFPLGPATHGGTYRCFGSFRHSPYQWSDPSDPLLVSVTGNPSSSWPSPTEPSSKSGNPRHLHILIGTSVVIILFILLLFFLLHLWCSNKKNAAVMDQEPAGNRTANSEDSDEQDPEEVTYAQLDHCVFTQRKITRPSQRPKTPPTDTILYTELPNAKPRSKVVSCP | 89 % of ·001 | 99 % of ·001
7 | FLAG-tagged 3DL1*001, P43629 L166A (protein) HMGGQDKPFLSAWPSAVVPRGGHVTLRCHYRHRFNNFMLYKEDRIHIPIFHGRIFQESFNMSPVTTAHAGNYTCRGSHPHSPTGWSAPSNPVVIMVTGNHRKPSLLAHPGPLVKSGERVILQCWSDIMFEHFFLHKEGISKDPSRLVGQIHDGVSKANFSIGPMMAALAGTYRCYGSVTHTPYQLSAPSDPLDIVVTGPYEKPSLSAQPGPKVQAGESVTLSCSSRSSYDMYHLSREGGAHERRLPAVRKVNRTFQADFPLGPATHGGTYRCFGSFRHSPYEWSDPSDPLLVSVTGNPSSSWPSPTEPSSKSGNPRHLHILIGTSVVIILFILLLFFLLHLWCSNKKNAAVMDQEPAGNRTANSEDSDEQDPEEVTYAQLDHCVFTQRKITRPSQRPKTPPTDTILYTELPNAKPRSKVVSCP | 45 % of ·001 | 56 % of ·001
8 | FLAG-tagged 3DL1*001, P43629 Y200A (protein) HMGGQDKPFLSAWPSAVVPRGGHVTLRCHYRHRFNNFMLYKEDRIHIPIFHGRIFQESFNMSPVTTAHAGNYTCRGSHPHSPTGWSAPSNPVVIMVTGNHRKPSLLAHPGPLVKSGERVILQCWSDIMFEHFFLHKEGISKDPSRLVGQIHDGVSKANFSIGPMMLALAGTYRCYGSVTHTPYQLSAPSDPLDIVVTGPAEKPSLSAQPGPKVQAGESVTLSCSSRSSYDMYHLSREGGAHERRLPAVRKVNRTFQADFPLGPATHGGTYRCFGSFRHSPYEWSDPSDPLLVSVTGNPSSSWPSPTEPSSKSGNPRHLHILIGTSVVIILFILLLFFLLHLWCSNKKNAAVMDQEPAGNRTANSEDSDEQDPEEVTYAQLDHCVFTQRKITRPSQRPKTPPTDTILYTELPNAKPRSKVVSCP | 15 % of ·001 | 16 % of ·001
9 | FLAG-tagged 3DL1*001, P43629 Y200F (protein) HMGGQDKPFLSAWPSAVVPRGGHVTLRCHYRHRFNNFMLYKEDRIHIPIFHGRIFQESFNMSPVTTAHAGNYTCRGSHPHSPTGWSAPSNPVVIMVTGNHRKPSLLAHPGPLVKSGERVILQCWSDIMFEHFFLHKEGISKDPSRLVGQIHDGVSKANFSIGPMMLALAGTYRCYGSVTHTPYQLSAPSDPLDIVVTGPFEKPSLSAQPGPKVQAGESVTLSCSSRSSYDMYHLSREGGAHERRLPAVRKVNRTFQADFPLGPATHGGTYRCFGSFRHSPYEWSDPSDPLLVSVTGNPSSSWPSPTEPSSKSGNPRHLHILIGTSVVIILFILLLFFLLHLWCSNKKNAAVMDQEPAGNRTANSEDSDEQDPEEVTYAQLDHCVFTQRKITRPSQRPKTPPTDTILYTELPNAKPRSKVVSCP | 81 % of ·001 | 87 % of ·001
10 | FLAG-tagged 3DL1*001, P43629 E282A (protein) HMGGQDKPFLSAWPSAVVPRGGHVTLRCHYRHRFNNFMLYKEDRIHIPIFHGRIFQESFNMSPVTTAHAGNYTCRGSHPHSPTGWSAPSNPVVIMVTGNHRKPSLLAHPGPLVKSGERVILQCWSDIMFEHFFLHKEGISKDPSRLVGQIHDGVSKANFSIGPMMLALAGTYRCYGSVTHTPYQLSAPSDPLDIVVTGPYEKPSLSAQPGPKVQAGESVTLSCSSRSSYDMYHLSREGGAHERRLPAVRKVNRTFQADFPLGPATHGGTYRCFGSFRHSPYAWSDPSDPLLVSVTGNPSSSWPSPTEPSSKSGNPRHLHILIGTSVVIILFILLLFFLLHLWCSNKKNAAVMDQEPAGNRTANSEDSDEQDPEEVTYAQLDHCVFTQRKITRPSQRPKTPPTDTILYTELPNAKPRSKVVSCP | 48 % of ·001 | 51 % of ·001
